The sequences below were run on Escherichia coli TOP10 (assay: shrunken log2 fold change of peptide-encoding DNA abundance (4.5 h post-induction vs induction); higher = less antimicrobial activity (less host growth inhibition)). Details: time post-induction: 4.5 h; library: site-saturation at positions 5, 18, 19, 20.
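Also: peptides expressed intracellularly from a pBAD plasmid library in pooled LB shake-flask culture, induced with 0.3% L-arabinose, DNA abundance read by NGS, three biological replicates, DESeq2 with apeglm shrinkage.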

Row | Sequence | shrunken log2 fold change
1 | RRIRYRPPRLPRPRPRPDMEPRP | -0.0135
2 | RRIRYRPPRLPRPRPRPDMWPRP | -1.03
3 | RRIRYRPPRLPRPRPRPDQQPRP | -0.0144
4 | RRIRYRPPRLPRPRPRPDTIPRP | -0.145
5 | RRIRYRPPRLPRPRPRPDYPPRP | -0.14
6 | RRIRYRPPRLPRPRPRPDYTPRP | -0.174
7 | RRIRYRPPRLPRPRPRPEALPRP | -0.23
8 | RRIRYRPPRLPRPRPRPEAVPRP | 0.0685
9 | RRIRYRPPRLPRPRPRPEDKPRP | -0.0222
10 | RRIRYRPPRLPRPRPRPEELPRP | -0.0326
11 | RRIRYRPPRLPRPRPRPEENPRP | -0.0116
12 | RRIRYRPPRLPRPRPRPEFAPRP | -0.167
13 | RRIRYRPPRLPRPRPRPEGFPRP | -0.487
14 | RRIRYRPPRLPRPRPRPEKCPRP | -0.26
15 | RRIRYRPPRLPRPRPRPEKLPRP | -0.034
16 | RRIRYRPPRLPRPRPRPELFPRP | -0.0192
17 | RRIRYRPPRLPRPRPRPELIPRP | -0.363
18 | RRIRYRPPRLPRPRPRPEMAPRP | -0.107
19 | RRIRYRPPRLPRPRPRPEMGPRP | -0.0771
20 | RRIRYRPPRLPRPRPRPENIPRP | -0.105
21 | RRIRYRPPRLPRPRPRPENQPRP | -0.222
22 | RRIRYRPPRLPRPRPRPENWPRP | -0.223

Row | Sequence | shrunken log2 fold change
23 | RRIRYRPPRLPRPRPRPEPAPRP | 0.168
24 | RRIRYRPPRLPRPRPRPEPVPRP | -0.00973
25 | RRIRYRPPRLPRPRPRPERHPRP | -0.0384
26 | RRIRYRPPRLPRPRPRPESQPRP | -0.0411
27 | RRIRYRPPRLPRPRPRPESTPRP | -0.00514
28 | RRIRYRPPRLPRPRPRPETQPRP | -0.00798
29 | RRIRYRPPRLPRPRPRPFDPPRP | -0.199
30 | RRIRYRPPRLPRPRPRPFEGPRP | -0.000989
31 | RRIRYRPPRLPRPRPRPFEMPRP | -0.738
32 | RRIRYRPPRLPRPRPRPFEPPRP | -0.343
33 | RRIRYRPPRLPRPRPRPFFQPRP | -0.428
34 | RRIRYRPPRLPRPRPRPFGMPRP | -0.00968
35 | RRIRYRPPRLPRPRPRPFIKPRP | -0.263
36 | RRIRYRPPRLPRPRPRPFLVPRP | -1.03
37 | RRIRYRPPRLPRPRPRPFLYPRP | -0.881
38 | RRIRYRPPRLPRPRPRPFPCPRP | -0.467
39 | RRIRYRPPRLPRPRPRPFPLPRP | -0.109
40 | RRIRYRPPRLPRPRPRPFPWPRP | -0.18
41 | RRIRYRPPRLPRPRPRPFRPPRP | -0.0325
42 | RRIRYRPPRLPRPRPRPFTCPRP | -0.103
43 | RRIRYRPPRLPRPRPRPFTTPRP | 0.0402
44 | RRIRYRPPRLPRPRPRPFWAPRP | -0.306

Row | Sequence | shrunken log2 fold change
45 | RRIRYRPPRLPRPRPRPFWTPRP | -0.111
46 | RRIRYRPPRLPRPRPRPFYDPRP | -0.708
47 | RRIRYRPPRLPRPRPRPFYQPRP | -0.224
48 | RRIRYRPPRLPRPRPRPFYSPRP | -1.23
49 | RRIRYRPPRLPRPRPRPFYWPRP | -1.7
50 | RRIRYRPPRLPRPRPRPFYYPRP | -1.18
51 | RRIRYRPPRLPRPRPRPGANPRP | -0.0888
52 | RRIRYRPPRLPRPRPRPGCAPRP | -0.139
53 | RRIRYRPPRLPRPRPRPGCLPRP | 1.79
54 | RRIRYRPPRLPRPRPRPGCTPRP | -0.0794
55 | RRIRYRPPRLPRPRPRPGDHPRP | 0.0294
56 | RRIRYRPPRLPRPRPRPGECPRP | -0.489
57 | RRIRYRPPRLPRPRPRPGFSPRP | -0.0944
58 | RRIRYRPPRLPRPRPRPGHQPRP | 0.0299
59 | RRIRYRPPRLPRPRPRPGIYPRP | -0.288
60 | RRIRYRPPRLPRPRPRPGKFPRP | -0.0427
61 | RRIRYRPPRLPRPRPRPGKYPRP | -0.466
62 | RRIRYRPPRLPRPRPRPGLDPRP | -0.188
63 | RRIRYRPPRLPRPRPRPGLMPRP | -0.103
64 | RRIRYRPPRLPRPRPRPGMDPRP | -0.299
65 | RRIRYRPPRLPRPRPRPGMFPRP | -0.524
66 | RRIRYRPPRLPRPRPRPGMLPRP | -0.139

Row | Sequence | shrunken log2 fold change
67 | RRIRYRPPRLPRPRPRPGMWPRP | 0.234
68 | RRIRYRPPRLPRPRPRPGNEPRP | -0.229
69 | RRIRYRPPRLPRPRPRPGNLPRP | 0.0185
70 | RRIRYRPPRLPRPRPRPGNVPRP | 0.0571
71 | RRIRYRPPRLPRPRPRPGPPPRP | 0.277
72 | RRIRYRPPRLPRPRPRPGQGPRP | -0.0311
73 | RRIRYRPPRLPRPRPRPGQYPRP | -0.414
74 | RRIRYRPPRLPRPRPRPGSSPRP | -0.853
75 | RRIRYRPPRLPRPRPRPGVAPRP | 0.182
76 | RRIRYRPPRLPRPRPRPGVIPRP | -0.297
77 | RRIRYRPPRLPRPRPRPGVNPRP | -3.04
78 | RRIRYRPPRLPRPRPRPGWAPRP | 0.0172
79 | RRIRYRPPRLPRPRPRPGWIPRP | -0.328
80 | RRIRYRPPRLPRPRPRPGWPPRP | 0.0827
81 | RRIRYRPPRLPRPRPRPGWQPRP | 0.015
82 | RRIRYRPPRLPRPRPRPGWTPRP | -0.103
83 | RRIRYRPPRLPRPRPRPGYEPRP | 0.026
84 | RRIRYRPPRLPRPRPRPGYWPRP | -0.154
85 | RRIRYRPPRLPRPRPRPHALPRP | -0.656
86 | RRIRYRPPRLPRPRPRPHAVPRP | -0.4
87 | RRIRYRPPRLPRPRPRPHCDPRP | -0.0698
88 | RRIRYRPPRLPRPRPRPHCQPRP | -0.297

Row | Sequence | shrunken log2 fold change
89 | RRIRYRPPRLPRPRPRPHGHPRP | -0.358
90 | RRIRYRPPRLPRPRPRPHGRPRP | -0.00992
91 | RRIRYRPPRLPRPRPRPHGWPRP | -0.0273
92 | RRIRYRPPRLPRPRPRPHITPRP | -0.538
93 | RRIRYRPPRLPRPRPRPHKAPRP | -0.0167
94 | RRIRYRPPRLPRPRPRPHKVPRP | -0.739
95 | RRIRYRPPRLPRPRPRPHMEPRP | -0.249
96 | RRIRYRPPRLPRPRPRPHMLPRP | -1.09
97 | RRIRYRPPRLPRPRPRPHMQPRP | -1.07
98 | RRIRYRPPRLPRPRPRPHNAPRP | -1.21
99 | RRIRYRPPRLPRPRPRPHQTPRP | 0.0583
100 | RRIRYRPPRLPRPRPRPHSIPRP | -0.311
101 | RRIRYRPPRLPRPRPRPHTFPRP | -0.14
102 | RRIRYRPPRLPRPRPRPHVKPRP | -0.00472
103 | RRIRYRPPRLPRPRPRPHYDPRP | -0.557
104 | RRIRYRPPRLPRPRPRPIAVPRP | -0.321
105 | RRIRYRPPRLPRPRPRPIDAPRP | -0.284
106 | RRIRYRPPRLPRPRPRPIDPPRP | -0.00088
107 | RRIRYRPPRLPRPRPRPIDWPRP | 0.0205
108 | RRIRYRPPRLPRPRPRPIFFPRP | -0.353
109 | RRIRYRPPRLPRPRPRPIGPPRP | -0.00962

From the supplement of paper PMC9112550, “Optimization of the antimicrobial peptide Bac7 by deep mutational scanning” (BMC Biology, 2022)
